The series can be described thus: soluble on expression in E. coli; label from the status in PepcDB or PDB records.
As for “SLPRDENMPLIQVIDDDVSMLILLKDALESKGWMVMANTEPEKAVDQFFDMNPDCLIIDVNLPGKSGFHVLEDIQKHTNKKFIPKLMISIMNDRETRIKAYRLGADDFISKPIDLEEFLIKVERHLDRKQIFDQSVLIDELTQVYNRRFLKDSLKRYLKELERSNQYFSIAVLDLDHFKQVNDMYGHPAGDRILSEFAQYLKDHVRIGDIVFRYGGEEFILLLPRTNDHDSKEVVSRLLSGFSSRTFIEGGAELKMTFSAGVYMVHDPSATVAEAIKTADQALYKAKRNGRARVESANKLIGGHSRKVLNVSVIDDDAIIRTMLMKILQSMEFEHTSLDIQVYEDGQKFLQSGRMEQKGEHFLILDGIMPVMDGTEVLQKVKENRNASRVHVLMLTGRKTEYDIARALKLGADDYVTKPFSITELQARIHRLIQRMSEG”, the “soluble on expression in E. coli” value is on record as “soluble”.

With “SLQDFWCSTLVKGVIYGSYSVSEMFPKNFTNCTWTLENPDPTKYSIYLKFSKKDLSCSNFSLLAYQFDHFSHEKIKDLLRKNHSIMQLCNSKNAFVFLQYDKNFIQIRRVFPTNFPGLQKKGEEDQKSFFEFLVLNKVSPSQFGCHVLCTWLESCLKSENGRTESCGIMYTKCTCPQHLGEWGIDDQSLILLNNVVLPLNEQTEGCLTQELQTTQVCNLTREAKRPPKEEFGMMGDHTIKSQRPRSVHEKRVPQEQADAAKFMAQTG”, the “soluble on expression in E. coli” value is on record as “soluble”.

For the sequence “SLRKLRFTRSPYTSARLGQPVDASLLLCNGGRRRFRGQVRDAWPPSARAQPHTHDVDVAAGQRQQVHTALRPVRRGDQRAAMVTARSIGPLGLAGRQSSQSVPGLVRVLPPFLSRKHLPSRLAKLREIDGLLPTLIRGQGTEFDSLREYVVGDDVRSIDWRASARRADVMVRTWRPERDRRVVIVLDTGRMAAGRVGVDPTAADPAGWPRLDWSMDAALLLAALASRAGDHVDFLAHDRISRAGVFGASRSELLAQLVDAMAPLRPALIESDWHAMIATILRRTRRRSLVVLLTDLNATALDEGLLPVLPQLSARHHVLVAAVADPRVDQLAAGRSDAAAVYDAAAAERARNDRRAIASQLRRGGVDVIDAPPAEIAPGLADRYLAMKATGRL”, the “soluble on expression in E. coli” value is “not soluble”.

Turning to “SLRVYIYEYAVATGDEEFLAEGRAMLESLLRAFAKSGYETLTVAHPSVGVRWADEVLRDETQALECADLTLVIAPESDGLLESKVREYSRETEVIGPTPRAIRVAADKRKTEDALRDARSFQLPTREADVMVSKPADGAGSEGVRIGRGELSRELIPGSHHSLLCVSDGETVDVLGINDQFVAFAGRELVYLGGRTPSDHRELTRIARDIAEEVVERIPGLVGLFGVDLVMKGGEPYLIEVNPRPTTPTVAAALEHPEAVVRSLLEGPTGKVLRYRREYVYVKRGAEALVPEKFEVVEDFHGLRVYRG”, the “soluble on expression in E. coli” value is on record as “soluble”.

With “SLSFLYFNDNSKIANAPLKNRFEKTQKESLIIKNNNEDKKAKSKPKFYLIIDDVGYDEFMLEQFIKLNLKITYAIIPFLPKSMSLYKKLKNANKTVIIHFPMQSKHRNSIEKFHINIKDKKEEIHKKIEKAFKKYPDAKIMNNHMGSLITSNKDLMKIILEKLKEIDRYFFDSVTIAGSVPEIIGKEIGVKVEKRDVFLDSKDTEESVTKELEKAKNIARKNGMVKVIGHIWSKNTLKVLKKEGPDLNQEFEFDNLLNLYEETIR”, the “soluble on expression in E. coli” value is reported as “soluble”.

As for “SLSGNYLPRNTLVESLGHAMLKLSGWKIEGQLPALDKFVVIGAHHTSNWDFVAFLAAKFVLRLNARWFGKHTLFNGPLGGLMRRWGGIPIQRHLKLNTVDQAIQAFREHREFMLIIAPEGTRKKVDRWRMGFYHIARGAGVPVVPAALDYENRRIVIGEPFWPTGNEDADLCSLIGFYRPFIPKKPHYAFLGDEG”, the “soluble on expression in E. coli” value was “not soluble”.

With “SLSLESLEWMAFDSFLLWRSEESIDARILLVEINQNDNYSLTSTISNSSFIGVIEKLQVYQPKVIGLEVDQHLLINSQEDKLAKIFQKYKNLIANEKILPLQVHSYLDLPNEQITFADQILDNDGKSRRSLLAINTSNGYKLSLAMELARIYLAEKNISLENSRLGKTKLPRFLPNSGGYIRADASGFQVLINFRSGNQRFRTLSGEDIKNGKFNPEWIRDRIVIIGITNTHNQGFIPTSAITSVKSASTQVNKLEIQAHAISQIISAVLDGRPLINTWNDG”, the “soluble on expression in E. coli” value is “soluble”.

“SLSWLTTHFVVTNRRVMFRHGVLTRSGIDIPLARINSVEFRDRIFERIFRTGTLIIESASQDPLEFYNIPRLREVHALLYHEVFDTLGSDESPS”: the “soluble on expression in E. coli” value is listed as “soluble”.

Turning to “SLTHYKYYEANVETNQVLVFLHGFLSDSRTYHNHIEKFTDNYHVITIDLPGHGEDQSSMDETWNFDYITTLLDRILDKYKDKSITLFGYSMGGRVALYYAINGHIPISNLILESTSPGIKEEANQLERRLVDDARAKVLDIAGIELFVNDWEKLPLFQSQLELPVEIQHQIRQQRLSQSPHKMAKALRDYGTGQMPNLWPRLKEIKVPTLILAGEYDEKFVQIAKKMANLIPNSKCKLISATGHTIHVEDSDEFDTMILGFLKEEQND”, the “soluble on expression in E. coli” value is reported as “soluble”.

Consider “SLTSEMIENIQSVKAYCWEEAMEKSGGGSGGGSGGGSGGGIENSHVKKDDIWPSGGQMTVKDLTAKYTEGGNAILENISFSISPGQRVGLLGRTGSGKSTLLSAFLRLLNTEGEIQIDGVSWDSITLEQWRKAFGVIPQKVFIFSGTFRKNLDPYEQWSDQEIWKVADEVGLRSVIEQFPGKLDFVLVDGGCVLSHGHKQLMCLARSVLSKAKILLLDEPSAHLDPVTYQIIRRTLKQAFADCTVILCEARIEAMLECDQFLVIEENKVRQYDSIQKLLNERSDFRQAISPSD”, for which the “soluble on expression in E. coli” value was “soluble”.

Turning to “SLVMKASVDDDDSGWELSMPEKMEKSNTNWVDITQDFEEACRELKLGELLHDKLFGLFEAMSAIEMMDPKMDAGMIGNQVNRKVLNFEQAIKDGTIKIKDLTLPELIGIMDTCFCCLITWLEGHSLAQTVFTCLYIHNPDFIEDPAMKAFALGILKICDIAREKVNKAAVFEEEDFQSMTYGFKMANSVTDLRVTGMLKDVEDDMQRRVKSTRSRQGEERDPEVELEHQQCLAVFSRVKFTRVLLTVLIAFTKKETSAVAEAQKLMVQAADLLSAIHNSLHHGIQAQNDTT”, the “soluble on expression in E. coli” value is listed as “soluble”.

As for “SMDPPPSETHKLVVVGGGGVGKSALTIQFIQSYFVSDYDPTIEDSYTKICSVDGIPARLDILDTAGQEEFGAMREQYMRAGHGFLLVFAINDRQSFNEVGKLFTQILRVKDRDDFPVVLVGNKADLESQRQVPRSEASAFGASHHVAYFEASAKLRLNVDEAFEQLVRAVRKYQEQELPPS”, the “soluble on expression in E. coli” value is “soluble”.

As to “SMGGFMEDLRKCKIIFIIGGPGSGKGTQCEKLVEKYGFTHLSTGELLREELASESERSKLIRDIMERGDLVPSGIVLELLKEAMVASLGDTRGFLIDGYPREVKQGEEFGRRIGDPQLVICMDCSADTMTNRLLQMSRSSLPVDDTTKTIAKRLEAYYRASIPVIAYYETKTQLHKINAEGTPEDVFLQLCTAIDSIFL”, the “soluble on expression in E. coli” value is listed as “soluble”.

“SMKDHTEGLSDKEQRFVDKLYTGLIQGQRACLAEAITLVESTHSRKKELAQVLLQKVLLYHREQEQSNKGKPLAFRVGLSGPPGAGKSTFIEYFGKMLTERGHKLSVLAVDPSSCTSGGSLLGDKTRMTELSRDMNAYIRPSPTRGTLGGVTRTTNEAILLCEGAGYDIILIETVGVGQSEFAVADMVDMFVLLLPPAGGDELQGIKRGIIEMADLVAVTKSDGDLIVPARRIQAEYVSALKLLRKRSQVWKPKVIRISARSGEGISEMWDKMKDFQDLMLASGELTAKRRKQQKVWMWNLIQESVLEHFRTHPTVREQIPLLEQKVLIGALSPGLAADFLLKAFKSRD”: the “soluble on expression in E. coli” value is “soluble”.

For “SMSNANPFFSQSLAERDASVRGAILKELERQQSQVELIASENIVSRAVLDAQGSVLTNKYAEGYPGKRYYGGCEFADEVEALAIERVKRLFNAGHANVQPHSGAQANGAVMLALAKPGDTVLGMSLDAGGHLTHGAKPALSGKWFNALQYGVSRDTMLIDYDQVEALAQQHKPSLIIAGFSAYPRKLDFARFRAIADSVGAKLMVDMAHIAGVIAAGRHANPVEHAHVVTSTTHKTLRGPRGGFVLTNDEEIAKKINSAVFPGLQGGPLMHVIAGKAVAFGEALTDDFKTYIDRVLANAQALGDVLKAGGVDLVTGGTDNHLLLVDLRPKGLKGAQVEQALERAGITCNKNGIPFDPEKPTITSGIRLGTPAGTTRGFGAAEFREVGRLILEVFEALRTNPEGDHATEQRVRREIFALCERFPIY”, the “soluble on expression in E. coli” value is “soluble”.

Take “SMYMSNPTVRIAFVGKYLQDAGDTYFSVLQCFEHCQIALQVRLDILYVDSEELEGPNADEARKALLGCDGIFVPGGFGNRGVDGKCAAAQVARMNNIPYFGVCLGMQVAVIELSRNVVGWSDANSEEFNKESTHQVVRIMDCDRNKMGANMHLGACDVYIVEKSSIMAKIYSKSNIVVERHRHRYEVNTAYFEDLRKAGLCISAVTDPTFSSRCRVEAVENPSLRFFLAVQFHPEFISTPMDPAPTYLSFMAAAAKKDYVWPQKCSQRRLKQA”: the “soluble on expression in E. coli” value is “soluble”.

For “SNAERRLCAILAADMAGYSRLMERNETDVLNRQKLYRRELIDPAIAQAGGQIVKTTGDGMLARFDTAQAALRCALEIQQAMQQREEDTPRKERIQYRIGINIGDIVLEDGDIFGDAVNVAARLEAISEPGAICVSDIVHQITQDRVSEPFTDLGLQKVKNITRPIRVWQWVPDADRDQSHDPQPSHVQH”, the “soluble on expression in E. coli” value is given as “soluble”.

For the sequence “SNAIAVGSERSADGKGMLLANPHFPWNGAMRFYQMHLTIPGRLDVMGASLPGLPVVNIGFSRHLAWTHTVDTSSHFTLYRLALDPKDPRRYLVDGRSLPLEEKSVAIEVRGADGKLSRVEHKVYQSIYGPLVVWPGKLDWNRSEAYALRDANLENTRVLQQWYSINQASDVADLRRRVEALQGIPWVNTLAADEQGNALYMNQSVVPYLKPELIPACAIPQLVAEGLPALQGQDSRCAWSRDPAAAQAGITPAAQLPVLLRRDFVQNSNDSAWLTNPASPLQGFSPLVSQEKPIGPRARYALSRLQGKQPLEAKTLEEMVTANHVFSADQVLPDLLRLCRDNQGEKSLARACAALAQWDRGANLDSGSGFVYFQRFMQRFAELDGAWKEPFDAQRPLDTPQGIALDRPQVATQVRQALADAAAEVEKSGIPDGARWGDLQVSTRGQERIAIPGGDGHFGVYNAIQSVRKGDHLEVVGGTSYIQLVTFPEEGPKARGLLAFSQSSDPRSPHYRDQTELFSRQQWQTLPFSDRQIDADPQLQRLSIRE”, the “soluble on expression in E. coli” value is listed as “soluble”.

Turning to “SNAKELIQNIIEESYTDSQFTLSVLSEKLDLSSGYLSIMFKKNFGIPFQDYLLQKRMEKAKLLLLTTELKNYEIAEQVGFEDVNYFITKFKKYYQITPKQYRE”, the “soluble on expression in E. coli” value is given as “soluble”.

Turning to “SNAMDLQLSKRLQKVANYVPKGARLLDVGSDHAYLPIFLLQMGYCDFAIAGEVVNGPYQSALKNVSEHGLTSKIDVRLANGLSAFEEADNIDTITICGMGGRLIADILNNDIDKLQHVKTLVLQPNNREDDLRKWLAANDFEIVAEDILTENDKRYEILVVKHGHMNLTAKELRFGPFLLSNNTTVFKEKWQNELNKLTFALNSIPNSKMEERAILEDKIQDIKEVLDES”, the “soluble on expression in E. coli” value was “soluble”.

Take “SNAMDMVTVTAKTVEEAVTKALIELQTTSDKLTYEIVEKGSAGFLGIGSKPAIIRAKRKETLQDKAIEFLEQVFDAMNMAVDISVEYNETEKEMNVNLKGDDMGILIGKRGQTLDSLQYLVSLVVNKSSSDYIRVKLDTENYRERRKETLETLAKNIAYKVKRTKRSVSLEPMNPYERRIIHAALQNDKYVVTRSDGEEPFRHVIISLKRENRRDRNDRSDRNEK”: the “soluble on expression in E. coli” value is given as “soluble”.

Turning to “SNAMGKKIRTEEVDHLFEAILCLKNKEECYTFFEDVCTINELLSLSQRFEVAKMLTDKRTYLDISEKTGASTATISRVNRSLNYGNDGYEMVFSRMKEKETAGKTEE”, the “soluble on expression in E. coli” value was “soluble”.

The values are drawn from the DeepSol protein solubility set.
